The source of these data is the supplement of paper PMC12042874.

± gives the uncertainty stated by the source.

The nature of the data set: amyloid nucleation score (Sup35N fusion, yeast selection) (log enrichment); library NNK1; higher = more nucleation; inactive = no reads after selection. The procedure, abridged:
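Plasmid inserts were Illumina-sequenced at input and output from psi-negative yeast expressing Sup35N fused to peptides of 20 random codons. The yeast were induced with 100 μM copper sulfate for 24 hours and grown 7 days at 30°C on medium lacking adenine and uracil, and sequences with under 100 input reads were excluded. Nucleation score is the DiMSum log enrichment of output over input reads, centred on the mode score of non-aggregating sequences.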
SDFGI gave an amyloid nucleation score of -0.647 ± 0.64.

In the case of GSVAKRPVVKISRHPLCMVW, the amyloid nucleation score is 0.364 ± 0.24.

For the substance PSALGMVNGYIRVIYKRR, the amyloid nucleation score was found to be 0.359 ± 0.53.

As for IRLKYSGHAILFHETKNKHA, the amyloid nucleation score is 0.511 ± 0.42.

Regarding LIKLLRVKRMYASYLFSNKV, the amyloid nucleation score was -1.33 ± 1.6.

On to GMMHFGCGFSFWWNNFRQWW, for which the amyloid nucleation score was determined as 2.49 ± 0.19.

Turning to EYMFGYVSLSVDGSTLEFHD, the amyloid nucleation score stood at 0.107 ± 0.24.

Consider HNSHRWYMGGTNVGVSCI, for which the amyloid nucleation score came to 0.456 ± 0.93.

Substance DGLRCIGCIGNTGDWNS yielded an amyloid nucleation score of 6.86 ± 0.085.

Take HSMLI: the amyloid nucleation score worked out at 0.539 ± 0.61.

LVCSLTDNYDEE: the amyloid nucleation score was found to be 0.169 ± 0.97.

As for VGRNNASLHSDKNRWFGFGF, the amyloid nucleation score was 1.49 ± 0.18.

In the case of VSFIYFRVWILAMDY, the amyloid nucleation score was determined as 0.842 ± 0.37.

The substance WSSKLFCIGLDLCVVDDMCF yielded an amyloid nucleation score of 2.44 ± 0.12.

Substance NWIVCRPDAGMQPRTNNLIV registered an amyloid nucleation score of -0.536 ± 0.58.

The substance VWFRCWSPEVENGHVCLSCS registered an amyloid nucleation score of -0.026 ± 0.41.

Consider YRSGSMLCNYPSRAVTVCWS, for which the amyloid nucleation score stood at 1.16 ± 0.38.

In turn, ALAVVVLFLCVSTPAYVAFE returned an amyloid nucleation score of 0.923 ± 0.53.

As for DGSYTWWAFGSIQRCEGLTV, the amyloid nucleation score was 0.177 ± 0.47.

FCLMMEVGSVLRNLVPVSFR displayed an amyloid nucleation score of -0.122 ± 1.4.

In turn, LLLFFNYNLSVIWWVYGRKS showed an amyloid nucleation score of 1.23 ± 0.47.

In the case of NSYLSND, the amyloid nucleation score entry was “inactive”.

Substance IYLPRNVFRLTWFYLSQSLA registered an amyloid nucleation score of 0.639 ± 1.1.

Take LIYPGIVDFVFSDARQGCSR: the amyloid nucleation score turned out to be 1.08 ± 0.69.

VVASSCSFNRRLESSAGYL: the amyloid nucleation score was found to be 0.744 ± 0.37.

The substance NRDYTVFKTRVFKSIFRIR showed an amyloid nucleation score of 0.505 ± 0.78.

VEEGNMRCSNLMTLEHTTHK showed an amyloid nucleation score of -0.582 ± 0.42.

RDVDRGMHQMAPSTGVRLVL showed an amyloid nucleation score of 2.81 ± 0.14.

Regarding NRNISAIGACTGCTNMVFYS, the amyloid nucleation score worked out at 5.64 ± 0.11.

PLKHVRQDWCTKLICNSGNY: the amyloid nucleation score was -0.357 ± 0.43.

Consider ISRSASVGRGLGKYESRAVR, for which the amyloid nucleation score was 0.353 ± 1.2.

IPYLN: the amyloid nucleation score was 1.15 ± 0.54.

HSVYL had an amyloid nucleation score of 1.24 ± 0.3.

The substance TRSVWIEDRVTRAARFKGQR gave an amyloid nucleation score of -0.116 ± 0.47.

With VCLRLARWILHQKHTYVYWY, the amyloid nucleation score result is “inactive”.

CVCYRTDRVARTGCNEPSMQ: the amyloid nucleation score is 0.177 ± 0.59.

Turning to IKEFRYMLKRYLLWFVDLLL, the amyloid nucleation score amounted to 0.762 ± 0.59.

In the case of NVYSIYIINYMAYKVFWDMI, the amyloid nucleation score is -0.116 ± 0.29.

Substance RFWSAL had an amyloid nucleation score of -0.148 ± 0.92.

Regarding WSFVYMENVIARYEVSVG, the amyloid nucleation score was determined as 0.296 ± 0.25.

RVGWMLNGAGALWFFRYKLN registered an amyloid nucleation score of -0.256 ± 0.7.

With LQAAGLRFGRICLFLDK, the amyloid nucleation score is -0.259 ± 1.2.

Consider WDTDVLRDNWSQLRFLVSGR, for which the amyloid nucleation score was -0.216 ± 0.21.

As for KKKRRLSSWYSHPVPSSGLL, the amyloid nucleation score stood at 0.488 ± 1.

In turn, VIPVFRGSSFA registered an amyloid nucleation score of -0.055 ± 0.66.

VNCSRYRGESASDNWSGALL registered an amyloid nucleation score of -0.186 ± 0.85.

Substance KSVVLHWYAYSMLYPLWNLV showed an amyloid nucleation score of 0.511 ± 0.53.

LYIGIPYVGVWNL showed an amyloid nucleation score of 0.282 ± 1.2.

YSALVFRYGVISKGDLVTRR displayed an amyloid nucleation score of 0.123 ± 0.36.

Consider VLVFCVTMVRNYSWCIGWRI, for which the amyloid nucleation score worked out at 0.035 ± 0.44.

As to VEPSYMFGYVVDWEHMVLKS, the amyloid nucleation score was -2.11 ± 2.4.

In turn, FMMCAYSLVPILLP had an amyloid nucleation score of 0.136 ± 1.1.

In turn, FRVLNCVSYVFFQRHFRRCG had an amyloid nucleation score of -0.974 ± 0.88.

Substance PYHIKLLQR displayed an amyloid nucleation score of 1.44 ± 0.18.

For the substance LPGVFAPCSDYLMVMDVGHS, the amyloid nucleation score is -0.409 ± 0.35.

In turn, VTDFVALFVIGTGPVVGLRW returned an amyloid nucleation score of 1.27 ± 0.43.

Consider VAVRTPMSVCSVLLGSGSGL, for which the amyloid nucleation score is -0.162 ± 1.1.

On to SIANVSFW, for which the amyloid nucleation score came to 1.59 ± 0.18.

LNCCYKKNVGIQDMRTMDIQ: the amyloid nucleation score is 0.247 ± 1.1.

LDSFTYKS came in with an amyloid nucleation score of 1.99 ± 0.49.

The substance VDSVLIWIMFAAMGSKCPG registered an amyloid nucleation score of 1.77 ± 0.23.

Consider VVSDNSMDV, for which the amyloid nucleation score was determined as 0.39 ± 0.47.

Take VVVFSTF: the amyloid nucleation score was -0.376 ± 1.4.

Substance RFLPVLVSIINKRQGGYDF gave an amyloid nucleation score of 0.064 ± 0.46.

In the case of NVSKDS, the amyloid nucleation score is -0.063 ± 0.54.

IEYCIVSFQSMGE yielded an amyloid nucleation score of 0.326 ± 0.46.

SGFSGVRNHPRETQLCHGSA yielded an amyloid nucleation score of -0.094 ± 0.33.

As to SNFSG, the amyloid nucleation score stood at 0.446 ± 0.66.

With STVLATFHVE, the amyloid nucleation score came out at 0.041 ± 0.37.

FRVGYFAHSCRYVRSGRHMV: the amyloid nucleation score was determined as 0.401 ± 0.26.

For the substance YRYSSIF, the amyloid nucleation score is -0.954 ± 1.4.

As for MNLYNRNYLYCIYRKETTTT, the amyloid nucleation score was -0.957 ± 1.4.

QYCKFPNIRRLRINK yielded an amyloid nucleation score of -0.393 ± 0.36.

Turning to LVRRFLSWRIQSLDPIKK, the amyloid nucleation score was -0.425 ± 0.76.

With QYNSGLDRMA, the amyloid nucleation score was 1.14 ± 0.62.

On to HIFCRVIPLHMYKLADNW, for which the amyloid nucleation score was found to be 0.841 ± 0.8.

As to RSRPVPIVKDRSISNSRESR, the amyloid nucleation score was -0.999 ± 2.4.

As for YGINAVFLLIDLDERITDYL, the amyloid nucleation score amounted to 0.105 ± 0.29.

Consider RIWLTFTSFIYDNVDRILVQ, for which the amyloid nucleation score was -0.2 ± 0.67.

In the case of EGHARKKEWLTITPRER, the amyloid nucleation score was found to be 0.261 ± 0.38.

GIHNFEGGMTLWLLLFSQRS gave an amyloid nucleation score of 0.24 ± 1.2.

For SRVVSYSL, the amyloid nucleation score is -0.5 ± 0.41.

The substance SSPRTLRGLIYGRIKYYVLE had an amyloid nucleation score of 1.84 ± 0.35.

As for PYYHHVGVGYAFYVICVRAF, the amyloid nucleation score entry was “inactive”.

In the case of RCLEGLSIMLNDFLPPCGP, the amyloid nucleation score was -0.224 ± 0.71.

As for IMAGHFRL, the amyloid nucleation score amounted to 3.69 ± 0.082.

Take QGHCGTYHSGGSVNRLPHGV: the amyloid nucleation score was found to be 0.209 ± 0.39.

In the case of ETSGSPFILIICIYELNVVM, the amyloid nucleation score was found to be 4.61 ± 0.07.

Regarding SGGELVVLIYMNMGASGWAP, the amyloid nucleation score was -0.756 ± 0.56.

As for VLISENNITNHNSHECLVCY, the amyloid nucleation score was -1.02 ± 1.7.

Substance MTSAGSAWVYSYFYLGLIRK registered an amyloid nucleation score of -0.143 ± 0.53.

In the case of FPDELESWRTSASPRVAPMG, the amyloid nucleation score is -0.247 ± 1.9.

With LMPPSG, the amyloid nucleation score came out at 0.072 ± 0.69.

As for ITLCVNRLRFRVKLNHQSSF, the amyloid nucleation score entry is “inactive”.

As to IFILD, the amyloid nucleation score result is “inactive”.

As for IVVGRC, the amyloid nucleation score was 0.144 ± 0.39.

Take YIYDIGGLTHATMRCTCR: the amyloid nucleation score came to 0.635 ± 0.49.

On to TVNSWRNLMSDLSWFSAVIL, for which the amyloid nucleation score was -0.657 ± 0.39.

Turning to VFYKYRQGARYDFF, the amyloid nucleation score turned out to be 0.227 ± 0.89.

As for YLGTFN, the amyloid nucleation score result is “inactive”.

Regarding SASWGRYGERLHCDQRYFII, the amyloid nucleation score result is “inactive”.

In the case of NSRSGLMNLVEKSLLYKMLY, the amyloid nucleation score was -0.007 ± 0.48.

MPCNVGMGWCRVVNWWGLYG had an amyloid nucleation score of 0.604 ± 0.44.

ECRGQLSDKIVQYNRPEVYW returned an amyloid nucleation score of -0.199 ± 0.28.

GWSIMVGQMASLLWCIRAGT showed an amyloid nucleation score of 0.116 ± 0.3.

For TYQRRL, the amyloid nucleation score was -0.414 ± 1.1.

In turn, HAHVQCGESE returned an amyloid nucleation score of 0.092 ± 0.73.

Turning to RNSDSNTVGNRSFWLLGIL, the amyloid nucleation score was 0.389 ± 0.3.

Regarding EFSLGSPIKWTNHGLVIKGM, the amyloid nucleation score was 2.71 ± 0.13.

Consider CVLCKQRFTILMQRWLVRK, for which the amyloid nucleation score was 0.961 ± 0.61.

The substance YMIMQLDACFECLTFQGQY registered an amyloid nucleation score of 5.9 ± 0.087.

As for PCTPYLSTYVPLNEK, the amyloid nucleation score is -0.017 ± 0.31.

For the substance FVTWH, the amyloid nucleation score result was “inactive”.

YLCLAECSLSPYNTTLVGGV displayed an amyloid nucleation score of -1.6 ± 0.81.

LNYSWDWLVVCIVANVRTYD gave an amyloid nucleation score of 2.22 ± 0.12.

In turn, LYWSPVWM came in with an amyloid nucleation score of -0.232 ± 1.5.

In turn, FMISRFLAMRILRTAIWRED yielded an amyloid nucleation score of 0.447 ± 0.78.

IRPINKYRIVLIWVSFVRGE had an amyloid nucleation score of 0.718 ± 0.73.

AASVSCNLQQKAKRVAFFLM returned an amyloid nucleation score of 0.726 ± 1.1.

Regarding NGCLQRKNWLVSGSFLHFVD, the amyloid nucleation score is -0.295 ± 0.72.

As for VLWSCDAMWWVRIKSTYVWN, the amyloid nucleation score turned out to be 0.495 ± 1.2.

Substance RLSHRM yielded an amyloid nucleation score of -0.994 ± 0.54.

The substance LQYAKRDDIDSDVLLYKMYG had an amyloid nucleation score of 0.203 ± 0.97.

Substance TNSFSSSLRMV yielded an amyloid nucleation score of 0.076 ± 0.88.

Substance VTYTEYCSVLLKTH returned an amyloid nucleation score of -1.81 ± 2.4.

Substance WDRTTCVYSLLPMGNSPKVE returned an amyloid nucleation score of 0.144 ± 0.45.

For the substance LFRWVLLFFVRT, the amyloid nucleation score result is “inactive”.

For the substance EHTSGVDFIVNNLSECFTLR, the amyloid nucleation score result is “inactive”.

For GRGWYGSRYARVVHFVWGYA, the amyloid nucleation score is -0.487 ± 0.34.

For WHSSSLMWHNKLS, the amyloid nucleation score entry was “inactive”.

As for TFYLFSRGSSLEIWG, the amyloid nucleation score came to 5.72 ± 0.059.

The substance RGIYWVSFVLSGRIIGWMVG registered an amyloid nucleation score of 0.275 ± 0.8.

Substance CYVMLINAEND registered an amyloid nucleation score of -0.796 ± 1.4.

FIRFTICALTSKVDFI: the amyloid nucleation score was 0.811 ± 0.74.

YKVSKMNRRDTNGNLVNRRV had an amyloid nucleation score of -0.211 ± 1.2.

EGYAWGPYLKLTRSKLRMSF: the amyloid nucleation score is -0.374 ± 0.81.

As to LCDGFILLSNVLLGPMIYDW, the amyloid nucleation score worked out at 0.561 ± 0.27.

For the substance VCFTYNFSPQLVL, the amyloid nucleation score stood at 0.098 ± 0.38.

As for RCKLLIIVIRKDTCLKYCGH, the amyloid nucleation score was 0.308 ± 0.32.

Consider HGAMLSSM, for which the amyloid nucleation score was -2.06 ± 2.4.
